According to US20260258092A1:
“And” between values parts separate entries of the source, which are not always exact repeats. Identical values can stand only once.

What was measured:
[1] = biological target: dAb, a domain antibody comprising the variable light chain; test: frontal analysis on a membrane disc, run 2, average of Test 1 and Test 2
Trastuzumab [2] = test: frontal analysis on a membrane disc, load at 10 mL/min, run 1
Trastuzumab [3] = test: frontal analysis on a membrane disc, load at 10 mL/min, run 2 (no blank run before)
Trastuzumab [4] = test: frontal analysis on a membrane disc, load at 10 mL/min, average of runs 1-4
[5] = biological target: dAb, a domain antibody comprising the variable light chain; test: frontal analysis on a membrane disc, run 1, average of Test 1 and Test 2
Trastuzumab [6] = test: frontal analysis on a membrane disc, load at 10 mL/min, run 3
Trastuzumab [7] = test: frontal analysis on a membrane disc, blank run between runs, run 1
Trastuzumab [8] = test: frontal analysis on a membrane disc, blank run between runs, run 2
Trastuzumab [9] = test: frontal analysis on a membrane disc, blank run between runs, average
Trastuzumab [10] = test: frontal analysis on a membrane disc, load at 10 mL/min, run 4 (no blank run before)
[11] = biological target: dAb, a domain antibody comprising the variable light chain; test: frontal analysis on a membrane disc, run 2
[12] = biological target: dAb, a domain antibody comprising the variable light chain; test: frontal analysis on a membrane disc, run 1
[13] = biological target: dAb, a domain antibody comprising the variable light chain; test: frontal analysis on a membrane disc, re-run after CIP with 0.1 M NaOH, average; conditions: test 1, without preceding CIP wash

- Average of Qb10% [1]: 9.98 mg/mL
- Qb10% (dynamic binding capacity at 10% breakthrough) (Trastuzumab [2]): 17.3 mg/mL and 22 mg/mL
- Qb10% (dynamic binding capacity at 10% breakthrough) (Trastuzumab [3]): 12.3 mg/mL and 17.8 mg/mL
- Qb10% (average of runs) (Trastuzumab [4]): 19.6 mg/mL and 14.1 mg/mL
- Average of Qb10% [5]: 12.9 mg/mL
- Qb10% (dynamic binding capacity at 10% breakthrough) (Trastuzumab [6]): 15.9 mg/mL and 21.8 mg/mL
- Qb10% (dynamic binding capacity at 10% breakthrough) (Trastuzumab [7]): 15.4 mg/mL and 21.4 mg/mL
- Qb10% (dynamic binding capacity at 10% breakthrough) (Trastuzumab [8]): 15.5 mg/mL and 21.4 mg/mL
- Qb10% (average of runs) (Trastuzumab [9]): 15.4 mg/mL and 21.4 mg/mL
- Qb10% (dynamic binding capacity at 10% breakthrough) (Trastuzumab [10]): 10.8 mg/mL and 16.8 mg/mL
- Qb10% (dynamic binding capacity at 10% breakthrough) [11]: 9.41 mg/mL and 10.5 mg/mL
- Qb10% (dynamic binding capacity at 10% breakthrough) [12]: 12.8 mg/mL and 13 mg/mL
- Qb10% (average of runs) [13]: 10.2 mg/mL
Substance: kappa light chain-binding ligand (multimer of alkali-stabilized Finegoldia magna Protein L domains) covalently coupled to a convection-based fibrous support (prototype separation matrix) (designed binder)
